In the experiment the target is T1, V8 protease (Staphylococcus aureus, UniProt P0C1U8).
T1 construct: purchased CalBiochem (San Diego, Calif.)
In kind it is biochemical. Conditions: 30 μM peptide pre-incubated with 40 units CKII 18 hrs at 30° C. in absence of ATP; 1 unit V8 protease, room temperature, in less than three hours; HPLC (FIG. 3).

T1 sequence (P0C1U8 69-336): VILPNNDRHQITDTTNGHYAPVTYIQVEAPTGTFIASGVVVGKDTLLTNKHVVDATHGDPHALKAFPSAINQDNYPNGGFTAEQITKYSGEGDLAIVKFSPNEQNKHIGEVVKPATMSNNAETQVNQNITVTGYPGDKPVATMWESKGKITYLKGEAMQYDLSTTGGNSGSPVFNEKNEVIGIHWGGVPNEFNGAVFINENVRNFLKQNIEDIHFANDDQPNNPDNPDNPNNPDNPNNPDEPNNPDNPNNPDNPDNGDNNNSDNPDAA
Procedure: The peptide (30 μM) was incubated at room temperature with V8 protease (0.1 units) in a buffer containing 20 mM Tris-HCl, 50 mM KCl, 10 mM MgCl2, pH 7.5 (CKII buffer) and aliquots were removed at various time points and flash-frozen in a dry-ice/methanol bath. Products of the protease digestion were then separated on the HPLC column using a 0% to 50% acetonitrile/water gradient in the presence of 0.1% TFA. Peptide was detected using both absorbance at 250 nm and by fluorescence of the rhodamine label using 530 nm excitation and 590 nm emission filters.
Subsequently, 1 unit of V8 protease was added to each sample and the samples were incubated at room temperature. Aliquots were removed at various time points and flash-frozen in a dry-ice/methanol bath for HPLC analysis as described above.

As to “TMR-Asp-Glu-Ser-Glu-Glu-Glu-Asp-Lys(Nε-Flsn)-COOH (tetramethylrhodamine-DESEEEDK(fluorescein)-OH) [unphosphorylated peptide]”, the “peptide digested by V8 protease” value is 80%.
